{"source": "paper PMC3310821", "about": "“Inactivation of Staphylococcal Phenol Soluble Modulins by Serum Lipoprotein Particles” (PLoS Pathogens, 2012)", "proteins": {"B1": {"name": "FITC-labeled PSMα3 (peptide)", "peptide": "For-MEFVAKLFKFFKDLLGKFLGNN", "modifications": "also: FITC label, site not given here", "notes": "labeled by incubating 1 mg/ml PSMα3 with 100 µg/ml FITC in 0.1 M sodium carbonate buffer pH 9.6; also called PSMα3-FITC"}}, "molecular_target": "the molecule itself", "experiment": "SEC; 100 µg/ml PSMα3-FITC on Superdex 200 10/300GL equilibrated with PBS; OD492 nm", "note": "Ends that are not written are not given here. * marks the point of attachment. For = O=C*"}
{"protein": "B1", "values": [{"measurement": "binding result", "result": "binds"}]}
